# Results as given in patent CN107827984A (ZHANG HUILIN; ZHU JIN, dated 2018).
# B1: 嵌合抗ROR1抗体Fab分子 (Fab, V domains shown)
# VH: EVQLVQSGGGLVQPKGSLKLSCAASGFTFNTYAMNWVRQAPGKGLEWVARIRSKSNNYATYYADSVKDRFTISRDDSQSMLYLQMNNLKTEDTAMYYCVSPAYYGNYVGFAYWGQGTLVTVSA
# VL: ELVMTQSPTTMAASPGEKITFTCSASSSISSTYLHWFQQKPGFSPKLLIYRTSNLASGVPARFSGSGSGTSYSLTIGTMEAEDVATYYCQQGSSLPFTFGSGTKLEIKG
# notes: Human-mouse chimeric Fab, L and Fd joined by an interchain disulfide; also called 抗ROR1抗体人鼠嵌合Fab分子; 抗ROR1抗体嵌合Fab分子
# Tests used:
# [1] = target: ROR1天然抗原 (人卵巢癌细胞系A2780) (human) (UniProt Q01973); assay: flow cytometry on A2780 cells, Fab at 30 μg/mL, FITC goat anti-human Fab secondary
# [2] = target: T1, 重组人ROR1蛋白 (北京义翘神州, 产品编号13968-H08H) (human, UniProt Q01973 30-403); assay: ELISA, ROR1 coated at 0.5 μg/mL, Fab from 200 μg/mL in 11 dilutions, goat anti-human Fab secondary, OD450
# T1 construct: Bought protein; also called recombinant human ROR1 protein
# T1 sequence (Q01973 30-403 limits assumed): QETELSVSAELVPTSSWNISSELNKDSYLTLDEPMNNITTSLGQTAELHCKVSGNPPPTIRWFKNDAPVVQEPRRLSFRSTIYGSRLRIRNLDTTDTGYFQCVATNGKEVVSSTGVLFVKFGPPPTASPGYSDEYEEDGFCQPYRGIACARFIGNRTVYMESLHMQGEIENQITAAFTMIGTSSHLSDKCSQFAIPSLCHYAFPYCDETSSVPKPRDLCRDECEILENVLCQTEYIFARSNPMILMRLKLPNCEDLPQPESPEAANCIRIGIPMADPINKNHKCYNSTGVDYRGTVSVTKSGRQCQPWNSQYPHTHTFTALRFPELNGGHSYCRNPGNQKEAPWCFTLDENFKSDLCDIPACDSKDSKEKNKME
binder,measurement,setting,value
B1,结合率,[1],97.4%
same,binding result,[2],binds
